Here are results for 1 molecule from patent US20040146507A1.

The test deals with T1, rhesus CD11a (rhesus) (UniProt H9Z8N3).
T1 sequence: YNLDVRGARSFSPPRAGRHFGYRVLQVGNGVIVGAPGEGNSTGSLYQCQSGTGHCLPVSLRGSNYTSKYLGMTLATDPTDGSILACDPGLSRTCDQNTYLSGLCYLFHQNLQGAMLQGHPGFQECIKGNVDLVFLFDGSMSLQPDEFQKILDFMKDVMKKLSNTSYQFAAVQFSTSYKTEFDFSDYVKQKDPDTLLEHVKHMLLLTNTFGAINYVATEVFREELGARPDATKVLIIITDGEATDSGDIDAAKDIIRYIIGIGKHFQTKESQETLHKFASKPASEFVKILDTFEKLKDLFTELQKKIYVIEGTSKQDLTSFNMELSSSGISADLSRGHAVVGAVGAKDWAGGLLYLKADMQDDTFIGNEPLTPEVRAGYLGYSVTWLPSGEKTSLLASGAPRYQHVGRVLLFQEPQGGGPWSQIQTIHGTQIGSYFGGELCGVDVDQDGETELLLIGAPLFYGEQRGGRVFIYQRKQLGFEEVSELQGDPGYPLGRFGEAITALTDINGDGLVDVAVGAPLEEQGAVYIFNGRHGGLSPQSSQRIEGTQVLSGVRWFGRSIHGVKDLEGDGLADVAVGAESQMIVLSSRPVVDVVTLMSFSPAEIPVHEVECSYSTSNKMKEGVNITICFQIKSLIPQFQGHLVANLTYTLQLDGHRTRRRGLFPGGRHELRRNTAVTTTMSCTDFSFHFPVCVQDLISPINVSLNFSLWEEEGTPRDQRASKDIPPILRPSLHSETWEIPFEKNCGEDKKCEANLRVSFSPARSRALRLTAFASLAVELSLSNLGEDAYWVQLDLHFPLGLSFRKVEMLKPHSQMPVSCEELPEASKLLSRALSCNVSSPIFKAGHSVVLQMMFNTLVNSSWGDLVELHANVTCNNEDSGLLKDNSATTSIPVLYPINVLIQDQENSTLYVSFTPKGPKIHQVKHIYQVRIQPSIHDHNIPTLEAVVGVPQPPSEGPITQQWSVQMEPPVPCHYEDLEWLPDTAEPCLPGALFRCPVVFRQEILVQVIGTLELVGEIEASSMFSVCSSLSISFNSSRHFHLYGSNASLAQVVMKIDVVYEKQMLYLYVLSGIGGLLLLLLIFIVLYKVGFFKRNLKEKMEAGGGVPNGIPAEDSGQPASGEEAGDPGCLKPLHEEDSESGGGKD
As to the kind of experiment: rhesus PBL binding.

B1: HuIgG1 mutant SerL52Ala (antibody, V domains shown)
VH: EVQLVESGGGLVQPGGSLRLSCAASGYSFTGHWMNWVRQAPGKGLEWVGMIHPSDSETRYNQKFKDRFTISVDKSKNTLYLQMNSLRAEDTAVYYCARGIYFYGTTYFDYWGQGTLVTVSS
VL: DIQMTQSPSSLSASVGDRVTITCRASKTISKYLAWYQQKPGKAPKLLIYSGATLQSGVPSRFSGSGSGTDFTLTISSLQPEDFATYYCQQHNEYPLTFGQGTKVEIKR
In turn, B1 yielded a Var.EC50/HuIgG1 EC50 of 13.3.
